The source of these data is patent publication US9518088B2, “Peptide-phospholipid conjugates” (Indiana University Research and Technology Corporation, priority 2011, dated 2016).

A short description of data set [1]: Stability of the conjugates.
Data set [2] can be described thus: Solubility in water / aqueous buffers.
A further data set deals with T1, CD36 macrophage receptor (Mus musculus, UniProt Q08857).
T1 construct: endogenous in cells; host or cells: J774 murine macrophage cell line
Nature of the data set: CD36 macrophage receptor binding competition assay (biotinylated CuOxLDL binding to J774 macrophages). More on the design: species or system murine. The source says: Data are given as relative light units (RLU) per 100 ms (milliseconds). The plot is a representative experiment chosen from among at least four experiments. […] Data are shown as mean±SD (Standard Deviation) of B/B0 from 2 independent experiments with triplicate determination. […] Data are shown as mean±SD of B/B0 from two independent experiments with triplicate determination. Data in FIG. 3B and FIG. 3C were produced in parallel experiments.
The fixed concentration of biotinylated CuOxLDL (1.8 pmol apoB/mL, corresponding 1 μg apoB/mL or 0.14 nmol PC-epitopes/mL) was preincubated with compound 6, the control peptide TGTKGG, CuOxLDL, or native LDL, added at the concentrations indicated on the graphs, and then tested for binding as described in the experimental section. The highest CuOxLDL concentration tested was 200 μg/mL, which corresponds to approximately 28.3 nmoles of PC-epitopes/mL, as estimated from the previous observation that 1 mole of apoB-100 from CuOxLDL contains 78±15 moles of covalently attached phosphorus^10, which it is assumed are PC-epitopes only. The concentration of native LDL is plotted at equal protein concentration to CuOxLDL (and thus not as molar concentration of PC-epitopes). Each data point represents the mean and SD of 2 independent experiments of triplicate wells.
Each of peptide-phospholipid conjugates 6 and 23-27 were tested as competitors in a CD36 macrophage receptor binding competition assay, where fixed concentrations of CuOxLDL were incubated with the serially diluted competitor and controls in PBS buffer. The IC50 of each competitor is reported below in Table 1, confirming the affinity of the compounds of the invention for the CD36 macrophage receptor:
Binding of biotinylated OxLDL ligands to murine macrophages plated in microtiter wells was assessed by a chemiluminescent binding assay. Isolated human LDL was biotinylated according to manufacturer's protocol (Catalog No. 21326; Pierce Biotechnology). Native and biotinylated native LDL were subjected to copper sulfate oxidation in parallel to prepare unlabelled and biotinylated CuOxLDL ligands, respectively. It has been previously shown that CuOxLDL contains approximately 78 moles of PC-epitopes per mole of apoB-100 (the sole protein on LDL). The biotinylated native LDL and CuOxLDL ligands of equal protein concentration were serially diluted and tested for binding to adherent macrophages. The specificity of the binding of biotinylated CuOxLDL to macrophages was tested in competition experiments, where fixed concentrations of biotinylated CuOxLDL were incubated with the serially diluted competitor and controls in PBS. The ligand-competitor solutions were incubated overnight at 4° C. Murine macrophages from the J774 cell line were cultured in 10% fetal bovine serum in DMEM (DMEM-10) and plated in 100 μL L929-fibroblast conditioned media at 100,000 or 25,000 cells/well, respectively, in sterile 96-well flat-bottom white plates (Greiner Bio-One). The plating media consisted of 20% L929-fibroblast conditioned DMEM-10 and 80% fresh DMEM-10 and served as a source of growth factors, including macrophage colony-stimulating factor. After 72 hours, the plates were washed gently 5 times with PBS using a microtiter plate washer (Dynex Technologies, Chantilly, Va.), and wells were blocked with ice-cold 200 μL DMEM for 30 min, while plates were kept on ice. After washing, macrophages were incubated with ice-cold ligand and ligand-competitor solutions (100 μL/well) for 2 hours on ice, washed again, and fixed with ice-cold 3.7% formaldehyde in PBS for 30 min in the dark. After fixing the macrophages, the remaining part of the assay was carried out at room temperature. Macrophage-bound biotinylated OxLDL ligands were detected with NeutrAvidin-conjugated alkaline phosphatase (Pierce Biotechnology), LumiPhos 530 (Lumigen, Southfield, Mich.), and a Dynex Luminometer (Dynex Technologies). […]

In another data set the test system is macrophages and T-cells. Nature of the data set: Affinity for macrophages and T-cells. The data set is classed as cell-based.

Read-outs that look alike come from different tables or passages of the source.

T1 sequence (Q08857 whole entry): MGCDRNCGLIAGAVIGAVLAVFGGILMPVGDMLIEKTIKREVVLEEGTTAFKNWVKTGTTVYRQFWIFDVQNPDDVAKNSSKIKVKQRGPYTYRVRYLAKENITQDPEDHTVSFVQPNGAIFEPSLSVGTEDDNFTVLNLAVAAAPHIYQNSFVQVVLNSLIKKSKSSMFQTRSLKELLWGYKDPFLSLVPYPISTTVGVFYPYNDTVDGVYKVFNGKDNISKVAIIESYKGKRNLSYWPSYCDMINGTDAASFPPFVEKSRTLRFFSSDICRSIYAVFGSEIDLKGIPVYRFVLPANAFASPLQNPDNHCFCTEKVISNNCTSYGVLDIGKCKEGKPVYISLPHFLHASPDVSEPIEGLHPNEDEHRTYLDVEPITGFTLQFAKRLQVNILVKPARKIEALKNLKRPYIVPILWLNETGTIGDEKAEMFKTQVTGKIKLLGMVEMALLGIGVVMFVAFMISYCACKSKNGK

Consider `CCCCCCCCCCCCCCCC(=O)OCC(COP(=O)([O-])OCC[N+](C)(C)C)OC(=O)CCCCOCCCC[C@H](NC(=O)[C@H](C)NC(=O)[C@H](C)NC(C)=O)C(=O)N[C@@H](C)C(=O)N[C@@H](Cc1ccc(O)cc1)C(=O)O` (stereo partly shown) [Compound 3], for which the stability entry in data set [1] is “stable”. Further, in data set [2], the “water solubility / solubility in aqueous buffers” value is reported as “poor water solubility”.
The like results for `CCCCCCCCCCCCCCCC(=O)OC[C@H](COP(=O)([O-])OCC[N+](C)(C)C)OC(=O)CCCCOCCCC[C@H](NC(=O)[C@@H](NC(=O)CNC(=O)[C@@H](NC(C)=O)[C@@H](C)O)[C@@H](C)O)C(=O)NCC(=O)N[C@@H](Cc1ccc(O)cc1)C(=O)O` [Compound 4] were, in that order, “stable” and “poor water solubility”.
Taken in the same sequence, the figures for `CCCCCCCCCCCCCCCC(=O)OC[C@H](COP(=O)([O-])OCC[N+](C)(C)C)OC(=O)CCCCCCCCC[C@H](NC(=O)[C@@H](NC(=O)CNC(=O)[C@@H](NC(C)=O)[C@@H](C)O)[C@@H](C)O)C(=O)NCC(=O)N[C@@H](Cc1ccc(O)cc1)C(=O)O` [Compound 5] were “stable” and “poor water solubility”.
As for `CCCCCCCCCCCCCCCC(=O)OC[C@H](COP(=O)([O-])OCC[N+](C)(C)C)OC(=O)CCCCN(C)CCCC[C@H](NC(=O)[C@@H](NC(=O)CNC(=O)[C@@H](NC(C)=O)[C@@H](C)O)[C@@H](C)O)C(=O)NCC(=O)NCC(=O)O` [Compound 6], the IC50 at CD36 macrophage receptor turned out to be 60 µM. Moreover, the “competition with biotinylated CuOxLDL binding to macrophages” value at CD36 macrophage receptor (J774 macrophages, fixed biotinylated CuOxLDL 1.8 pmol apoB/mL (1 μg apoB/mL), FIG. 3B/3C, mean of 2 independent experiments, triplicate wells) is recorded as “more than 99%”. The “affinity for macrophages and T-cells” value in the data set with macrophages and T-cells was “showed affinity for macrophages and T-cells”. The stability result in data set [1] is reported as “stable”. In addition, the “water solubility / solubility in aqueous buffers” value in data set [2] is listed as “soluble in aqueous buffers”.
As for `CCCCCCCCCCCCCCCC(=O)OC[C@H](COP(=O)([O-])OCC[N+](C)(C)C)OC(=O)CCCCN(C)CCCC[C@H](NC(C)=O)C(=O)NCC(=O)NCC(=O)O` [Compound 23], the IC50 on CD36 macrophage receptor (competitor serially diluted, fixed concentration of CuOxLDL, PBS buffer, J774 macrophages, read-out: IC50) was 38 µM.
Turning to `CCCCCCCCCCCCCCCC(=O)OC[C@H](COP(=O)([O-])OCC[N+](C)(C)C)OC(=O)CCCCN(C)CCCC[C@H](NC(=O)[C@H](C)NC(C)=O)C(=O)NCC(=O)NCC(=O)O` [Compound 24], the IC50 on CD36 macrophage receptor came out at 131 µM.
Same read-out and setting: under `CCCCCCCCCCCCCCCC(=O)OC[C@H](COP(=O)([O-])OCC[N+](C)(C)C)OC(=O)CCCCN(C)CCCC[C@H](NC(=O)[C@@H](NC(C)=O)C(C)C)C(=O)NCC(=O)NCC(=O)O` [Compound 25] stands 55 µM; under `CCCCCCCCCCCCCCCC(=O)OC[C@H](COP(=O)([O-])OCC[N+](C)(C)C)OC(=O)CCCCN(C)CCCC[C@H](NC(=O)[C@H](Cc1ccccc1)NC(C)=O)C(=O)NCC(=O)NCC(=O)O` [Compound 26], 47 µM.
The same measure, in the same setting: under `CCCCCCCCCCCCCCCC(=O)OC[C@H](COP(=O)([O-])OCC[N+](C)(C)C)OC(=O)CCCCN(C)CCCC[C@H](NC(=O)[C@H](Cc1ccccc1)NC(=O)[C@H](C)NC(C)=O)C(=O)NCC(=O)NCC(=O)O` [Compound 27] stands 47 µM.
